Experimental findings from patent US20210269546A1 (MOMENTA PHARMACEUTICALS, published 2021) are described below.

Test [1] addresses T1, cynomolgus monkey CD38 (CHO cells stably expressing cyno CD38) (cynomolgus monkey, UniProt Q5VAN0 1-301).
T1 construct: whole, on cells
The experiment in a line: flow cytometry, VivoTag645-labeled, CHO cells stably expressing cyno CD38, 4 °C, 1 hour, gMFI. As for the experimental part: (§1) FIG. 26. […] Extent of cell surface binding was assessed by flow cytometry. […]

The target of test [2] is T2, human CD38 on the cell surface (Raji and other human tumor cell lines) (human, UniProt P28907 1-300).
T2 construct: whole, on cells; also called cell surface CD38
The experiment in a line: flow cytometry, VivoTag645-labeled, human CD38 expressing Raji tumor cells, 4 °C, 1 hour, gMFI. How it is done: as §1
(In general: A flow cytometer gives signals particle by particle.)

T1 sequence (Q5VAN0 whole entry): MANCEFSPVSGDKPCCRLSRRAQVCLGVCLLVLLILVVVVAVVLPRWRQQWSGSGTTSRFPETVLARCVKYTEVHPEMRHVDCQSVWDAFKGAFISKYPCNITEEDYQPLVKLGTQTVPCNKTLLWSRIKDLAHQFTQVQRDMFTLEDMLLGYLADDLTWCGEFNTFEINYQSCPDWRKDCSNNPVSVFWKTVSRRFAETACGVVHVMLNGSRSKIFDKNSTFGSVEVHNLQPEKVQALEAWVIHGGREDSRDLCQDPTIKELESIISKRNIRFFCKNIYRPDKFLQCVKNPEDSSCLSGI

B1: S1A-AA-Cyno (anti-Cyno CD38 mAb) (antibody, V domains shown)
VH: QLLESGGGLVQPGGSLRLSCAASGFTFDDYGMSWVRQAPGKGLEWVSDISWNGGKTHYVDSVKGQFTISRDNSKNTLYLQMNSLRAEDTAVYYCARGSLFHDSSGFYFGHWGQGTLVTVSS
VL: QSVLTQPPSASGTPGQRVTISCSGSSSNIGDNYVSWYQQLPGTAPKLLIYRDSQRPSGVPDRFSGSKSGTSASLAISGLRSEDEADYYCQSYDSSLSGSVFGGGTKLTVLG
modifications: VivoTag645 dye label in the flow cytometry assays
notes: Surrogate anti-CD38 human monoclonal IgG1 antibody; VivoTag645-labeled in flow cytometry; also called SIA-AA-Cyno; S1A-AA-Cyno CD38
One may read the EC50 (read off the curve) as the concentration giving half of the maximal effect. B1: the binding result in test [1] is “binds”. Besides, in test [2], the “EC50 (read off the curve)” value was approximately 0.8 nM.
